Here are results for 2 molecules from publication PMC12318175.

In series [1] the target is T1, GST-OGG1 (mouse, UniProt O08760 1-345). The series is described as follows: EMSA.
Series [2] has as its target T1, GST-OGG1. The series is described as follows: EMSA. The source holds these as a separate data set.

Read-outs that look alike come from different tables or passages of the source.

T1 sequence (O08760 whole entry): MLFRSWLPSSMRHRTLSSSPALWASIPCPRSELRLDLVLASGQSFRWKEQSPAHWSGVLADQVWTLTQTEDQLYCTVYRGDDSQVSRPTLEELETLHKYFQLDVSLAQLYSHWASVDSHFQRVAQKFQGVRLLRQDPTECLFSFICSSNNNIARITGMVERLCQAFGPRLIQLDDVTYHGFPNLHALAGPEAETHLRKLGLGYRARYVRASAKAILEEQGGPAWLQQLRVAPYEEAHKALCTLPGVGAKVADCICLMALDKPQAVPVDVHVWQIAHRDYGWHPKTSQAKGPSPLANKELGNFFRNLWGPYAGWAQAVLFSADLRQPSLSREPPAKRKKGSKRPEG

B1: Cy5-WT (Foxp3 pro) (dsDNA)
DNA 1: AAGTGTGGGTATGGGAGCCAGACTGTCTGGAACAACCTA
DNA 2: TAGGTTGTTCCAGACAGTCTCGCTCCCATACCCACACTT
Turning to B1, the binding result in the series with GST-OGG1 [1] is on record as “no binding”.

B2: Cy5-5mC8-oxoG/GC (Foxp3 CNS2) (dsDNA)
DNA 1: GCCGATGAAGCCCAATGCATCCGGCCGCCATGACGTCA
DNA 2: TGACGTCATGGCGGCCGGATGCATTGGGCTTCATCGGC
modifications: 5mC at sense C22; 8-oxoG at sense G23
On to B2, for which, in the series with GST-OGG1 [2], the binding result was “binds”.
